In paper PMC11137118, “Liver and pancreatic-targeted interleukin-22 as a therapeutic for metabolic dysfunction-associated steatohepatitis” (Nature Communications, 2024):

B1: human IL-22 (hIL-22) (ligand, UniProt Q9GZX6 34-179, looked up)
chain: APISSHCRLDKSNFQQPYITNRTFMLAKEASLADNNTDVRLIGEKLFHGVSMSERCYLMKQVLNFTLEEVLFPQSDRFQPYMQEVVPFLARLSNRLSTCHIEGDDLHIQRNVQKLKDTVKKLGESGEIKAIGELDLLFMSLRNACI
notes: interleukin-22, human; codon optimised; the IL-22 stretch is then probably the mature protein; also called native hIL-22; native human IL-22; source: CHO-S, transiently transfected, secreted, purified (HisTrap Excel, HiTrap Q flow-through)
B2: hIL-22-GLP1 (human IL-22 fused to a GLP1 receptor binding protein) (other)
chain: B1 chain

Biological target: the molecule itself
Test: SEC + other: Western blot; HPLC-SEC: 50 uL of purified protein at 0.5 mg/mL on TSKgel 3000SWXL, 0.8 mL/min, PBS + 200 mM NaCl (pH 7.3), gel filtration standard for apparent molecular weight; Western blot conditions not told

| Protein | stoichiometry N |
| --- | --- |
| B1 | 2 |
| B2 | 2 |
